We go through one molecule from patent publication EP4676958A2 (dated 2026).

The test concerns the target T1, active human KLK7 (human, UniProt P49862 30-253).
T1 construct: mature; also called hKLK7; active form of hKLK7
Briefly: SPR, antibody captured on Protein A chip, 20 nM hKLK7 (FIG. 11A, 11F). (In general: SPR reads the build-up and loss of mass on a sensor chip optically.)

T1 sequence (P49862 30-253): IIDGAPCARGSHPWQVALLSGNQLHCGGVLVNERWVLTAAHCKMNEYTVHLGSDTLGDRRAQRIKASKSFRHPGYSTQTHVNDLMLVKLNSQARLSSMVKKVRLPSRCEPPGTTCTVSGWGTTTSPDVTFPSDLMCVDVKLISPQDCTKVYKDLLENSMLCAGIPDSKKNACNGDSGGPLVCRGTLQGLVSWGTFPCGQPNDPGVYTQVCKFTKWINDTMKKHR

B1: KLK7-L1-Ab8 (antibody, V domains shown)
VH: QVQLVQSGAEVKKPGASVKVSCKASGYTFTSEGIHWVRQAPGQGLEWMGSISASSGDTNYAQKLQGRVTMTTDTSTSTAYMELRSLRSDDTAVYYCARSAGYGARHWYFDLWGQGTMVTVSS
VL: DIQMTQSPSSLSASVGDRVTITCRASQSISSYLNWYQQKPGKAPKLLIYGASSLQSGVPSRFSGSGSGTDFTLTISSLQPEDFATYYCDQWYSTPPITFGGGTKVEIK
notes: captured on Protein A; also called KLK7-Ll-Ab8; KLK7- Ll-Ab8
For B1, the binding result was “binds”.
